Results from paper PMC11602657, “Nap1 and Kap114 co-chaperone H2A-H2B and facilitate targeted histone release in the nucleus” (The Journal of Cell Biology, 2024).

T1: MBP-Kap114 (S. cerevisiae, UniProt P53067 1-1004)
T1 construct: TEV site between MBP and Kap114; pMalE modified with a His6-tag immediately N-terminal of MBP and a TEV site after MBP; held on amylose resin in the pull-downs; also called immobilized MBP-Kap114; iK; source: E. coli BL21 Gold, purified (amylose beads, HiTrap Q, SEC); not shown: MBP, N-terminal, kept
T1 sequence: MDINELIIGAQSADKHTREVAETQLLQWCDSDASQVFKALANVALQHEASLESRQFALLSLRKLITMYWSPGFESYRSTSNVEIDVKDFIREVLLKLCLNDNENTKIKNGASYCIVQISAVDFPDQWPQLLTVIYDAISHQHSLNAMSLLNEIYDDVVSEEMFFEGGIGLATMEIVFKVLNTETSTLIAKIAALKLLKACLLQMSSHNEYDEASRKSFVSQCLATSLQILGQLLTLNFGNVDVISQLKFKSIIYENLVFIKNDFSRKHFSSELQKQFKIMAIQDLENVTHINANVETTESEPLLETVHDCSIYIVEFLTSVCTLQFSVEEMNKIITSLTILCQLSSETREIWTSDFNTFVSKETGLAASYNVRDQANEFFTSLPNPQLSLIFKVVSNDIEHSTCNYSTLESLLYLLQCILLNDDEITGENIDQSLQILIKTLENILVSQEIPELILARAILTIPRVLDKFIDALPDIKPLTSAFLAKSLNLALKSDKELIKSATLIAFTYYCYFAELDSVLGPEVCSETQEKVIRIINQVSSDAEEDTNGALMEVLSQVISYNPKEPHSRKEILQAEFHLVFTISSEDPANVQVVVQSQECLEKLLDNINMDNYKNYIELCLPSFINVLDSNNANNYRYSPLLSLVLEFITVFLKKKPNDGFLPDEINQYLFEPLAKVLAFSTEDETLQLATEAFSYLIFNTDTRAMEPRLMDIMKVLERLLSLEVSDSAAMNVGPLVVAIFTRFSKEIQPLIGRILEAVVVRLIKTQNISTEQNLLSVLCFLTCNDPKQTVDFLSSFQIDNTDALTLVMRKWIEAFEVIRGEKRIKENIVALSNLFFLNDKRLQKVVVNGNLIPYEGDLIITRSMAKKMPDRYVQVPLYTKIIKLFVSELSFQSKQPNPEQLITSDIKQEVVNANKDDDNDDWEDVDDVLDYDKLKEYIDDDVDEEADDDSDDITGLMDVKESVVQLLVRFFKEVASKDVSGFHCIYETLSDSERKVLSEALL

T2: Nap1 core (residues 75–365) (S. cerevisiae, UniProt P25293 75-365)
T2 chain: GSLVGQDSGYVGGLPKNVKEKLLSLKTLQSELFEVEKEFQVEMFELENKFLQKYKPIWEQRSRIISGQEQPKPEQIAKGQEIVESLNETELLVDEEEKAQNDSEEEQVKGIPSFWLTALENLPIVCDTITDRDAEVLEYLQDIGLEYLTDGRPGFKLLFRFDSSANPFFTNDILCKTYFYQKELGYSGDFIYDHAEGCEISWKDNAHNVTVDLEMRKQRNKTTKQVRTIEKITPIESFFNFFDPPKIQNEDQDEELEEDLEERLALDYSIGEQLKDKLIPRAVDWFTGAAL

B1: Nap1 core (residues 75–365), His tag removed (domain or fragment, S. cerevisiae, UniProt P25293 75-365, looked up)
chain: T2 chain
notes: Nap1 (nucleosome assembly protein 1), S. cerevisiae, core, residues 75–365; also called Nap1_(2) core; source: E. coli, purified (nickel-NTA, ion exchange, thrombin cleavage, SEC)
B2: Nap1 core (residues 75–365) (domain or fragment, S. cerevisiae, UniProt P25293 75-365, looked up)
chain: T2 chain
notes: Nap1 (nucleosome assembly protein 1), S. cerevisiae, core, residues 75–365; pET15b vector, gift from Karolin Luger; The His tag is said to be removed only for pull-down assays; also called His-Nap1 core; Nap1 core dimer; source: E. coli, purified (nickel-NTA, ion exchange, SEC)
B3: Kap114 (receptor, S. cerevisiae)
chain: T1 sequence
notes: also called Sc Kap114; source: E. coli, expressed as GST-Kap114, purified (Glutathione Sepharose 4B, on-column TEV cleavage, SEC)
B4: Nap1 α5/6mut (E194A/D201A/D205A) (natural protein, S. cerevisiae, UniProt P25293 1-417, looked up)
chain: MSDPIRTKPKSSMQIDNAPTPHNTPASVLNPSYLKNGNPVRAQAQEQDDKIGTINEEDILANQPLLLQSIQDRLGSLVGQDSGYVGGLPKNVKEKLLSLKTLQSELFEVEKEFQVEMFELENKFLQKYKPIWEQRSRIISGQEQPKPEQIAKGQEIVESLNETELLVDEEEKAQNDSEEEQVKGIPSFWLTALANLPIVAATITARDAEVLEYLQDIGLEYLTDGRPGFKLLFRFDSSANPFFTNDILAKTYFYQKELGYSGDFIYDHAEGAEISWKDNAHNVTVDLEMRKQRNKTTKQVRTIEKITPIESFFNFFDPPKIQNEDQDEELEEDLEERLALDYSIGEQLKDKLIPRAVDWFTGAALEFEFEEDEEEADEDEDEEEDDDHGLEDDDGESAEEQDDFAGRPEQAPECKQS
notes: also called mutant α5/6mut; source: E. coli BL21 gold, purified (Ni-NTA, TEV cleavage, HiTrap Q, Superdex S200)

Columns and labels:
[1] = molecular target: TBP (Saccharomyces cerevisiae) (UniProt P13393); settings: cited from earlier work
Kap114 [2] = molecular target: B3; assay: SEC-MALS; equimolar mixture of Kap114, Nap1_(2), H2A-H2B and Ran^GTP; Assay buffer without glycerol; Nap1 counted as dimer
[3] = molecular target: Nap1 FL (C200A, C249A, C272A) (S. cerevisiae) (UniProt P25293); assay: as above
Kap114 [4] = molecular target: B3; assay: SEC-MALS; 1:1:1 mixture of Kap114, Nap1_(2) and H2A-H2B (80 µM each), no Ran^GTP; Assay buffer without glycerol; Nap1 counted as dimer
[5] = molecular target: Nap1 FL (C200A, C249A, C272A) (S. cerevisiae) (UniProt P25293); assay: as above
MBP-Kap114 = molecular target: T1, MBP-Kap114; assay: pull-down; MBP-Kap114 (WT or mutant; or MBP alone) 1 µM immobilized on amylose resin, equimolar Nap1_(2) ± H2A-H2B (1 or 2 µM) ± Ran^GTP; Assay Buffer (20 mM HEPES pH 7.4, 150 mM NaCl, 2 mM MgCl2, 10% glycerol, 2 mM DTT), 30 min at 4°C; Coomassie-stained SDS-PAGE; settings: both partners purified
Kap114 [6] = molecular target: B3; assay: AUC; sedimentation velocity c(s) of Kap114, Nap1_(2) core and Ran^GTP alone and in mixtures at indicated molar ratios; 20 mM Tris-HCl pH 7.5, 150 mM NaCl, 2 mM MgCl2, 2 mM TCEP; settings: both partners purified
[7] = molecular target: the molecule itself; assay: cryo-EM structure; Nap1 core dimer:H2A-H2B 1:2, then 1 molar ratio Kap114, 0.05% glutaraldehyde 1 min, SEC; no Ran^GTP; gave Nap1_(2), Kap114•H2A-H2B and two ternary assemblies
[8] = molecular target: T2, Nap1 core (residues 75–365); assay: AUC
[9] = molecular target: B2; assay: AUC; sedimentation velocity; Kap114 titrated into the Nap1 core dimer; isotherm with one-site model; 20 mM Tris-HCl pH 7.5, 150 mM NaCl, 2 mM MgCl2, 2 mM TCEP; settings: both partners purified

TBP (Saccharomyces cerevisiae), sequence (P13393 2-240): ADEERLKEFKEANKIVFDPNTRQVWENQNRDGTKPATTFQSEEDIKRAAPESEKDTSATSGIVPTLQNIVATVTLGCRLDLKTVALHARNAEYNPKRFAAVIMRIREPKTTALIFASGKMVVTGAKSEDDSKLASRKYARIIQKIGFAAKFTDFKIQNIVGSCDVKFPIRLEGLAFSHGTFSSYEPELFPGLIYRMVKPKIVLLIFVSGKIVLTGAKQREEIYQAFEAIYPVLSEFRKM

## Kap114 (from UniProt P53067)
[1]
  Kd: < 1 nM

## Sc H2A-H2B (from UniProt P04911 2-124; P02293 5-131) (complex)
Kap114 [2]
  stoichiometry N: 1
[3]
  stoichiometry N: 1
Kap114 [4]
  stoichiometry N: 1
[5]
  stoichiometry N: 1

## B1
MBP-Kap114
  binding result: binds

## B2
Kap114 [6]
  binding result: binds
[7]
  binding result: binds

## B3
[8]
  Kd: 1040 nM
[9]
  stoichiometry N: 1

## B4
MBP-Kap114
  binding result: binds
